Measurements as given in US11066655B2, “RNA polymerase, methods of purification and methods of use” (President and Fellows of Harvard College, priority 2013, dated 2021).

Legend:
[1] = system: plasmid pET24 DNA harboring the Syn5 RNAP gene (pET24-S5RNAP); test: Filter-binding transcription assay (3H-AMP incorporation); format: biochemical
Protocol: FIGS. 4A-4B depict the effect of temperature and pH on Syn5 RNAP activity. A) Temperature. B) pH. RNA polymerase activity was measured as described in Materials and Methods described herein. The reactions contained 6 mM MgCl2, 200 µM 4 rNTPs (^3H-ATP), 50 nM Syn5 RNAP and 4 nM template (pET24-S5RNAP). The pH was 8.0 for assays in A and the temperature was 24° C. for B. Reactions were terminated and the amount of AMP incorporated was measured at 3, 10, and 30 min. The AMP incorporation was linear in this time range and the data measured at 10 min are presented.
FIGS. 5A-5C depict reaction requirements for Syn5 RNAP. A) Effect of NaCl on Syn5 RNAP activity. B) Effect of KCl on Syn5 and T7 RNAP (dashed line) activity. C) MgCl2 concentration on Syn5 RNAP activity. Reactions contained 200 µM 4 rNTPs (^3H-ATP), 50 nM Syn5 RNAP and 4 nM template (pET24-S5RNAP). For A and B, reactions also contained 6 mM MgCl2. For C, 160 mM KCl was present. Reactions were terminated and the amount of AMP incorporated was measured at 2.5, 5, and 10 min. AMP incorporation was linear in this time range and the data measured at 10 min are presented.
Basic reaction mixtures contained 40 mM Tris-HCl (pH 8.0 unless otherwise specified), 2 mM spermidine, 10 mM DTT, 200 µM[…] GTP, C[…]P, UTP and ^3H-ATP (20 cpm/pmole), 1.5 U/µl RNaseOUT™, 50 nM Syn5 or T7 RNAP and 4 nM plasmid pET24 DNA harboring the Syn5 RNAP gene (pET24-S5RNAP) that contains a single Syn5 promoter in the RNAP gene and a single T7 promoter preceding the gene. Reaction mixtures were incubated at 24° C. unless otherwise specified.
For the assays described in FIG. 7, reaction mixtures contained 40 mM Tris-HCl (pH 8.0), 6 mM MgCl2, 2 mM spermidine, 10 mM DTT, 20 nM Syn5 or T7 RNAP, 20 nM pET24-S5RNAP DNA, 1 mM ^3H-ATP (20 cpm/pmole), CTP, UTP (or GTP), and varying amounts of GTP (or UTP). 160 mM KCl was added for the Syn5 RNAP reactions. After various times the reactions were stopped by the addition of 20 mM EDTA. 4 µl of the mixtures were then loaded onto Whatman DE81 filter paper disks and the disks were washed to remove the unincorporated ^3H-ATP. The amount of insoluble ^3H-AMP, corresponding to nucleotides incorporated into newly synthesized RNA, was measured using a scintillation counter. The data were analyzed using Prism software.

Syn5 promoter = test: Cross recognition of promoters, gel transcription assay; format: biochemical, cyanophage Syn5; settings: for transcription from a Syn5 promoter: T7 DNA fragment with T7 promoter replaced by Syn5 promoter
Protocol: FIGS. 3A-3C depict characterization of the Syn5 promoter. A) Determination of the 3′-end of Syn5 promoter. 3′-dATP, 3′-dGTP, 3′-dUTP replaced ATP, GTP and UTP, respectively, as chain terminator to sequence the 5′-end of Syn5 RNAP transcript on a template same as template 1 in FIG. 2B. Once the 5′-terminus of the transcript was determined, the sequence preceding it should be the promoter and the 3′-end of the promoter can thus be defined. A 25% TBE-urea gel was used for this assay. B) Cross recognition between Syn5 and T7 transcription systems. Syn5 RNAP synthesizes runoff products on a fragment of T7 DNA provided the T7 promoter is replaced by a Syn5 promoter (lane a). Syn5 RNAP fails to produce transcripts if the first nucleotide downstream of the promoter is changed from G to T (lane b). […] T7 RNAP produces runoff and “N+1” products upon its own promoter (lane e). Sequences of templates can be found in Table 1. C) Schematic showing the identity of the two promoters based on the above data and previous bioinformatics analysis on the Syn5 and P-SSP7 genomes, respectively. Syn5 RNAP transcribes DNA fragments containing a Syn5 promoter to produce transcripts (>1500 for template 1, lane 1; and >200 nt for template 3, lane 3).
For the gel assay results shown in FIGS. 1, 2, 3, and 13, reaction mixtures (20 μl) contained 40 mM Tris-HCl (pH 7.9), 6 mM MgCl2, 2 mM spermidine, 10 mM DTT, 200 µM[…]P, GTP and UTP, 10 µM [[…]-^32P]CTP, 1.5 U/µl RNaseOUT™ recombinant ribonuclease inhibitor (Invitrogen), 100 nM Syn5 or T7 RNAP, and DNA templates as described in the figure legends (either 2 nM phage genomic DNA, 4 nM purified PCR products, or 1 µM synthetic dsDNA fragments). Reaction mixtures were incubated at 24° C. for 30 min. The reaction mixtures described in FIG. 6 contained 40 mM Tris-HCl (pH 8.0), 200 µM[…]P, GTP and UTP, 10 µM [[…]-^32P]CTP, 1.5 U/µl RNaseOUT™, 50 nM Syn5 RNAP, DNA templates, and various amounts of MgCl2, FeCl2, MnCl2 and KCl as described in the figure legends. […] After electrophoresis, gels were dried and analyzed using a Fuji BAS 1000 Bioimaging Analyzer.

[2] = Chamberlin et al. (1973); cited from earlier work
[3] = system: DNA templates with Syn5 promoter; test: Gel assay of transcription products with MgCl2, FeCl2 or MnCl2 as cofactor; format: biochemical
Protocol: FIG. 6 depicts a comparison of Syn5 RNAP transcription products in the presence of MgCl2, FeCl2 or MnCl2 on denaturing gels. Reactions contained 200 µM ATP, GTP, UTP and 10 µM[…]-^32P]CTP, 50 nM Syn5 RNAP, DNA templates (1 µM template as shown in FIG. 3A for 71 nt runoff transcript, 4 nM template 3 as shown in FIG. 3C for 225 nt product, or 1 µM template 1 as shown in FIG. 3B for 37 nt runoff transcript).
For the gel assay results shown in FIGS. 1, 2, 3, and 13, reaction mixtures (20 μl) contained 40 mM Tris-HCl (pH 7.9), 6 mM MgCl2, 2 mM spermidine, 10 mM DTT, 200 µM[…]P, GTP and UTP, 10 µM [[…]-^32P]CTP, 1.5 U/µl RNaseOUT™ recombinant ribonuclease inhibitor (Invitrogen), 100 nM Syn5 or T7 RNAP, and DNA templates as described in the figure legends (either 2 nM phage genomic DNA, 4 nM purified PCR products, or 1 µM synthetic dsDNA fragments). Reaction mixtures were incubated at 24° C. for 30 min. The reaction mixtures described in FIG. 6 contained 40 mM Tris-HCl (pH 8.0), 200 µM[…]P, GTP and UTP, 10 µM [[…]-^32P]CTP, 1.5 U/µl RNaseOUT™, 50 nM Syn5 RNAP, DNA templates, and various amounts of MgCl2, FeCl2, MnCl2 and KCl as described in the figure legends. After 30 min incubations at 24° C., one unit of RQ1 RNase-Free DNase (Promega) was added to each reaction mixture and incubated for an additional 20 min at 37° C. to remove the DNA templates. Reactions were then terminated by the addition of 8 µl of loading dye containing 95% formamide and 40 mM EDTA. Samples were then heated at 90° C. for 1 min and loaded onto either 10% or 25% TBE-Urea denaturing gels. After electrophoresis, gels were dried and analyzed using a Fuji BAS 1000 Bioimaging Analyzer.

T7 RNAP: RNA polymerase encoded by bacteriophage T7, from New England Biolabs [reference compound]
sensitivity to ionic strength ([1]; KCl titration, FIG. 5B): highly sensitive to the ionic strength of the reaction | transcription from a Syn5 promoter (Syn5 promoter): does not initiate transcription but does catalyze some non-specific RNA synthesis | temperature of maximum activity [2]: 37 °C

B1: Syn5 RNAP: single subunit DNA-dependent RNA polymerase from marine cyanophage Syn5, amino acid sequence SEQ ID NO:23 (protein)
chain: MSFDLIARQLQRETEAAELARKRLQDARREANERSYASSNIESRKAIATFLDPIAQRIGERLFTLRRGTGAVDAAEVYKHLKNADHHHLALITMKTALDVLGKDPEPQIQQLTTAIGRNIQLELRLTYYAEENPELYKQASRFFHAGTGTRQKATVIKLKFNREGIEWDQWSRVTCHKVGQWLMLAMADVTGWIERATDRTSGGRKTKTRICYSREFLQHRDTILAAAEQLAFCQWPMLCPPIEWSNDHNGGYLSEQIRRVNPLIRKTGPLGTRKQGDIPLAMLNNLQGQAYKVNPEVLDIANHCYESNVTVGKFIRHAPLPVPPSPGEDCTEDQLTAYKRARREAEDFNAQISQKNWRTTEVMYVARKYADEASFWMPASFDYRGRVYFLNTALNPQGTDFDKALLYFAEEGPVNEWWLSFHVATTYGLDKETMVNRVQWARDNHELIDRIASDPVRHTEWHDADEPWCFLAACLEYKACVIDGTKQTSGLPIGIDATCSGLQHLAAMTRCGRTAALVNVTPTDKPADAYKTVAQASLKHLPKEQHEWITRKVTKRPVMCTPYGVTMSSARGYIRDQLVKDGHKEDLRSPGVLNGIVKAIFNEAIPEVIPGPVQVMAWLKRSAGQIIDRGDSTITWTTPSGFEVVQDLKKSKTYEVKTRIMGGARIKLQVGDGFTDEPDRDHHKSALAPNVVHSNDASLLHLTFAFWDKPFTVIHDCVLGRSCDMDQMGSDIRLHFAEMYKADVMQDWADQVGVELPVDLIKNTLDIDSVNQSLYFFS
modifications: Amino acid sequence of a cyanophage Syn5 RNAP
potassium required for maximal activity [1]: 160 mM | metal ions in place of Mg2+ as cofactor ([1]; 10 mM Ca2+, Co2+, Cu2+ or Ni2+): cannot replace Mg^2+ | metal ions in place of Mg2+ as cofactor ([1]; 10 mM Zn2+ or Mn2+): A small amount of activity | increase of activity by NaCl ([1]; 80 mM NaCl, 6 mM MgCl2): two-fold | stimulation of activity by KCl ([1]; 160 mM KCl, 6 mM MgCl2): three-fold | activity remaining ([1]; 300 mM KCl): 10% | pH of highest activity ([1]; 24° C.): 8.0 | % of maximum activity ([1]; at 0° C.): 15% | % of maximum activity ([1]; at 37° C.): 8% | % of maximum activity ([1]; at 42° C.): 2% | Km ([1]; in the presence of 160 mM KCl, read-out: Km for MgCl2 as cofactor): ~2.5 mM | optimum temperature ([1]; pH 8.0, 6 mM MgCl2, 50 nM RNAP, 4 nM template): 24 °C | first nucleotide after promoter changed from G to T (Syn5 promoter; FIG. 3B lane b): unable to incorporate UTP as the first ribonucleotide | transcription from a Syn5 promoter (Syn5 promoter): produce a run-off product of the expected size | transcription with ferrous as cofactor ([3]; 2 mM FeCl2): produce a 71 nt runoff transcript identical to that produced in the presence of MgCl2 | longer transcripts (e.g. 225 nt) in the presence of iron ([3]; FeCl2): did not produce longer transcripts | maximum yield of short runoff products ([3]; manganese 0.25 to 1 mM versus magnesium): higher in the presence of manganese | N+1 runoff product ([3]; manganese versus magnesium): significantly higher with manganese than that with magnesium | efficiency of iron as a cofactor ([3]; versus magnesium): several times less than that of magnesium
